Here are results for four molecules from US20190359726A1 (CRAGE MEDICAL, published 2019).

Experiment [1] has as its target BCMA_huFc (human). In words: biacore, supernatant of the clone after reinduction; column headed Dissociation constant (Kd, S^-1). (In general: Surface plasmon resonance follows binding to a sensor surface in real time, without labels.)
Experiment [2] has as its target T1, recombinant human BCMA Fc (human, UniProt Q02223 1-54).
T1 construct: not shown: Fc
T1 sequence: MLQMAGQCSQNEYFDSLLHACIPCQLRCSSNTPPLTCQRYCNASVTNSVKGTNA
In words: ELISA(scFv), 2 ug/ml coated antigen, 200 nM scFv, HRP anti-Flag tag antibody. As for the experimental part: (§1) 2 ug/ml recombinant human BCMA Fc, mouse BCMA Fc, TACI huFc (R&D, #174TC), BAFF R (R&D, #1162-BR) were coated on immunoplates at 4° C. overnight. The next day, 300 μl/well of 2% MPBS was added for 2 hours, then 200 nM purified antibody (scFv format) was added and incubated at 37° C. for 1 hour, washed three times with PBST (PBS containing 0.05% Tween-20), and washed three times with PBS. And then 1:4000 diluted HRP-labeled anti-Flag tag antibody (sigma, #A8592-1MG) was added, incubated for 1 hour at 37° C., washed three times with PBST (PBS containing 0.05% Tween-20) and washed three times with PBS. 100 ul/well of TMBS substrate was added and developed for 10-15 minutes. The reaction was quenched by adding 50 ul of 2 M sulfuric acid.

Experiment [3] addresses BCMA_huFc (human). The experiment in a line: biacore, supernatant of the clone after reinduction.
The target of experiment [4] is T2, TACI huFc (R&D, #174TC) (human, UniProt O14836 2-166, limits assumed).
T2 construct: Bought reagent; also called human TACI; not shown: human Fc (huFc)
T2 sequence (looked up): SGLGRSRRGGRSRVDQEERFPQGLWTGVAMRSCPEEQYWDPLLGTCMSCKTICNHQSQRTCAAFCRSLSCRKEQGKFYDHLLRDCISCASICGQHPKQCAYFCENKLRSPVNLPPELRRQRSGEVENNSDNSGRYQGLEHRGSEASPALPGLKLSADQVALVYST
The experiment in a line: ELISA(scFv), 2 ug/ml coated antigen, HRP anti-Flag tag antibody. As for the experimental part:
as §1

For experiment [5], the target named is T3, BAFF R (R&D, #1162-BR) (human, UniProt Q96RJ3 7-71, limits assumed).
T3 construct: Bought reagent; also called human BAFF R
T3 sequence (looked up): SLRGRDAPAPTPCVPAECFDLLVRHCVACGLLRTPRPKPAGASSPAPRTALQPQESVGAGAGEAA
Described as above. On the procedure:
as §1

Experiment [6] addresses T4, human BCMA, full length, on cells (human, UniProt Q02223 1-184).
T4 construct: the cell line is named in each row's assay; also called K562-BCMA; K562 stably expressing BCMA
T4 sequence: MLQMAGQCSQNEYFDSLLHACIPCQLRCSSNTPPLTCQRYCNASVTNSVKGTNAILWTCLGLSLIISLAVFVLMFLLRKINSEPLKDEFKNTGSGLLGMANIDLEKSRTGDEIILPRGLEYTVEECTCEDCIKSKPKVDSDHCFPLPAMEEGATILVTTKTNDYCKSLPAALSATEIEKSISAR
The experiment in a line: flow cytometry on K562-BCMA cells, scFv_Fc titrated, FITC anti-human Fc. On the procedure:
K562 and K562 cells (K562-BCMA) stably expressing human BCMA were used and harvested, washed with complete growth medium, and plated into U-bottom microtiter plates at about 1 to 5×10⁵ cells/well. The gradient-diluted scFv_Fc fusion antibody was incubated with K562-BCMA/K562 for 30 minutes on ice, and then incubated with FITC-labeled anti-human Fc as a secondary antibody. After two washing steps, the analysis was performed using a Guava easyCyte™ HT System, and the experimental data was processed using GraphPad Prism to obtain an EC50.
Background: A flow cytometer gives signals particle by particle.

B1: 25C2 scFv (scFv)
scFv: EVQLLESGGGLVQPGGSLRLSCAASGFTFGGNAMSWVRQAPGKGLEWVSAISGNGGSTFYADSVKGRFTISRDNSKNTLYLQMNSLRAEDTAVYYCAKVRPFWGTFDYWGQGTLVTVSSGGGGSGGGGSGGGGSEIVLTQSPGTLSLSPGERATLSCRASQSVSSSYLAWYQQKPGQAPRLLIYGASSRATGIPDRFSGSGSGTDFTLTISRLEPEDFAVYYCQQYFNPPEYTFGQGTKVEIKR
notes: scFv format; also called clone 25C2
A word on the koff: it is the first-order rate constant of dissociation. A low value points to a long-lived complex. In experiment [1], B1 came in with a koff of 0.000364 s⁻¹. In addition, the values for the binding result in experiment [2], in experiment [4] and in experiment [5] were “binds”, “no binding (tested: 200 nM)” and “no binding (tested: 200 nM)”, respectively. The “fold lower Kd (dissociation rate) than parental clone 23F10” value in experiment [3] amounted to 10 times.

B2: 25D2 scFv (scFv)
scFv: EVQLLESGGGLVQPGGSLRLSCAASGFTFRSYAMSWVRQAPGKGLEWVSAISGGGGNTFYADSVKGRFTISRDNSKNTLYLQMNSLRAEDTAVYYCAKVRPFWGTFDYWGQGTLVTVSSGGGGSGGGGSGGGGSEIVLTQSPGTLSLSPGERATLSCRASQSVSSSYLAWYQQKPGQAPRLLIYGASSRATGIPDRFSGSGSGTDFTLTISRLEPEDFAVYYCQQYFNPPEYTFGQGTKVEIKR
notes: scFv format; also called clone 25D2
B2: the koff in experiment [1] came to 0.000374 s⁻¹. Further, the binding result in experiment [2] was “binds”; in experiment [4], “no binding (tested: 200 nM)”; in experiment [5], “no binding (tested: 200 nM)”. Besides, in experiment [3], the “fold lower Kd (dissociation rate) than parental clone 23F10” value was determined as 10 times.

B3: 25C2 (scFv_Fc) (Fc fusion)
chain: EVQLLESGGGLVQPGGSLRLSCAASGFTFGGNAMSWVRQAPGKGLEWVSAISGNGGSTFYADSVKGRFTISRDNSKNTLYLQMNSLRAEDTAVYYCAKVRPFWGTFDYWGQGTLVTVSSGGGGSGGGGSGGGGSEIVLTQSPGTLSLSPGERATLSCRASQSVSSSYLAWYQQKPGQAPRLLIYGASSRATGIPDRFSGSGSGTDFTLTISRLEPEDFAVYYCQQYFNPPEYTFGQGTKVEIK
notes: also called clone 25C2; not shown: human Fc fragment of vector V152
A word on the EC50: it is the concentration at which the effect is half-maximal. A higher EC50 goes with lower potency in that assay. Molecule B3 displayed an EC50 in experiment [6] of 2.59 nM.

B4: 25D2 (scFv_Fc) (Fc fusion)
chain: EVQLLESGGGLVQPGGSLRLSCAASGFTFRSYAMSWVRQAPGKGLEWVSAISGGGGNTFYADSVKGRFTISRDNSKNTLYLQMNSLRAEDTAVYYCAKVRPFWGTFDYWGQGTLVTVSSGGGGSGGGGSGGGGSEIVLTQSPGTLSLSPGERATLSCRASQSVSSSYLAWYQQKPGQAPRLLIYGASSRATGIPDRFSGSGSGTDFTLTISRLEPEDFAVYYCQQYFNPPEYTFGQGTKVEIK
notes: also called clone 25D2; not shown: human Fc fragment of vector V152
Turning to B4, a half-maximal effect in experiment [6] (EC50) was put at 1.89 nM. The EC50 values of the last two molecules are within 1.5-fold of each other.
